{"source": "patent US20240016956A1", "target": "AAV9 capsid (of the vector AAV9.CAG.GFP / AAV9 test virus) (AAV9)", "assay": "cell-based or functional assay", "note": "Values joined by “and” are separate entries in the source; they are usually repeats but may differ in a detail not shown here. Identical values can stand only once."}
{"substance": "IVIG (intravenous immunoglobulin), a purified mix of IgG obtained from thousands of healthy donors", "values": [{"measurement": "AAV9 NAb50 Titer in HEK293 cells (fresh IVIG sample) (reciprocal dilution)", "value": "160 and 320"}]}
